Laboratory results taken from PMC6025827 (Nature structural & molecular biology, 2018).

Biological target: the molecule itself
Experiment: crystal structure

B1: miTRPV2QM (minimal rabbit TRPV2 construct with the four point mutations F470S, L505M, L508T and Q528E) (domain or fragment)
chain: LNYRKGAGASQPDLNRFDRDRLFNVVARGNPEDLAGLLEYLRRTSKYLTDSEYTEGSTGKTCLMKAVLNLQDGVNACIQPLLEIDRDSGNPQPLVNAQCTDEYYRGHSALHIAIEKRSLQCVKLLVENGANVHAKACGHFFQKNQDTCFYFGELPLSLAACTKQWDVVNYLLENPHQPASLQAQDSLGNTVLHALVMIADDSAENSALVVRMYDGLLQAGARLCPNVQLEGIPNLEGLTPLKLAAKEGKIEIFKHILQREFSAPCQSLSRKFTEWCYGPVRVSLYDLASVDSWEENSVLEIIAFHSRSPHRHRMVVLEPLNKLLQAKWDRLIPRFCFNFLCYLVYMLIFTAVAYHQPALEKQGFPPLKATAGNSMLLLGHILILLGGVYLLLGQLWYFWRRRLFIWISFMDSYSEILFLLQALLTVLSQVLCFLAIEWYLPLLVSSLVMGWTNLLYYTRGFQHTGIYSVMIEKVILRDLLRFLLVYLVFLFGFAVALVSLSREAQDEAPPYRSILDASLELFKFTIGMGELAFQEQLRFRGVVLLLLLAYVLLTYVLLLNMLIALMSETVNSVATDSWSIWKLQKAISVLEMENGYWWCRRKKQRAGVMLTVGTRPDGSPDERWCFRVGEMNWATWEQTLPRTLC
- stoichiometry N: 4
